Source: PMC10681739, “High-throughput data and modeling reveal insights into the mechanisms of cooperative DNA-binding by transcription factor proteins”

B1: Table S3 B row 1191 (dsDNA)
DNA 1: CTCTTGCGGTCAGGTCACGCCGCCTGAAGCCGCCCC
DNA 2: GGGGCGGCTTCAGGCGGCGTGACCTGACCGCAAGAG
B2: Table S3 B row 1798 (dsDNA)
DNA 1: CTCTCTTGCGGTTTGCAGCCAGATCACCTCCCATAC
DNA 2: GTATGGGAGGTGATCTGGCTGCAAACCGCAAGAGAG
B3: Table S3 B row 3390 (dsDNA)
DNA 1: TTTCATATTTGTGGTTTTGGTGTTGCCTCTTACACA
DNA 2: TGTGTAAGAGGCAACACCAAAACCACAAATATGAAA
B4: Table S3 B row 3806 (dsDNA)
DNA 1: TCAGTCTTGTGGTTAAGGGAGGCAGGGTACTGTTGG
DNA 2: CCAACAGTACCCTGCCTCCCTTAACCACAAGACTGA
B5: Table S3 B row 1134 (dsDNA)
DNA 1: GTTAAGCTGCGGTCAGACCTAAGGGAGGATCTGGCT
DNA 2: AGCCAGATCCTCCCTTAGGTCTGACCGCAGCTTAAC
B6: Table S3 B row 3235 (dsDNA)
DNA 1: AAGTCAAAACCGCAAACGCTCAGTAAAAAAGACTCT
DNA 2: AGAGTCTTTTTTACTGAGCGTTTGCGGTTTTGACTT
B7: Table S3 B row 1768 (dsDNA)
DNA 1: TGGTTGTGGTTTGGAGATTCTGATGTCATTTGCTGT
DNA 2: ACAGCAAATGACATCAGAATCTCCAAACCACAACCA
B8: Table S3 B row 3657 (dsDNA)
DNA 1: CCACCCAAAACCACAACCATTTGCCCCATCACTTTG
DNA 2: CAAAGTGATGGGGCAAATGGTTGTGGTTTTGGGTGG
B9: Table S3 B row 2604 (dsDNA)
DNA 1: CGGGTTAAACCGCAGCCGCGCCCACACTTTCGGGGT
DNA 2: ACCCCGAAAGTGTGGGCGCGGCTGCGGTTTAACCCG
B10: Table S3 B row 1695 (dsDNA)
DNA 1: GCACAAAACCGCACAAACAGCCTGAAGCACAGCCCC
DNA 2: GGGGCTGTGCTTCAGGCTGTTTGTGCGGTTTTGTGC
B11: Table S3 B row 943 (dsDNA)
DNA 1: TGTTTGCGGTTTAGACCCCAAAGATTCATGTTGGTA
DNA 2: TACCAACATGAATCTTTGGGGTCTAAACCGCAAACA
B12: Table S3 B row 3458 (dsDNA)
DNA 1: CTGATTGTGGTTTTGATTTGCAATTCCCTGATGATT
DNA 2: AATCATCAGGGAATTGCAAATCAAAACCACAATCAG
B13: Table S3 B row 3040 (dsDNA)
DNA 1: GCCTTTTGTGGTTTGTACCACTGCCTGCCTTTTCTG
DNA 2: CAGAAAAGGCAGGCAGTGGTACAAACCACAAAAGGC
B14: Table S3 B row 2222 (dsDNA)
DNA 1: CAGAAACCGCAGAACTGAGCTGACGACCCGGGAGTG
DNA 2: CACTCCCGGGTCGTCAGCTCAGTTCTGCGGTTTCTG
B15: Table S3 B row 1801 (dsDNA)
DNA 1: ACTCTAACCGCAGTGACGTGGGACCTCCTCGGCAGG
DNA 2: CCTGCCGAGGAGGTCCCACGTCACTGCGGTTAGAGT
B16: Table S3 B row 3420 (dsDNA)
DNA 1: GGTTTGTGGTTTCCCCTTACTGTCTCCACTGCCTTC
DNA 2: GAAGGCAGTGGAGACAGTAAGGGGAAACCACAAACC
B17: Table S3 B row 278 (dsDNA)
DNA 1: TAAGTGTTGTGGTTTTTTAGTTTACTGTTCAGTTGC
DNA 2: GCAACTGAACAGTAAACTAAAAAACCACAACACTTA
B18: Table S3 B row 1072 (dsDNA)
DNA 1: CTTCTTCTTGCGGTTTCAATCACAGTAAACAGACGT
DNA 2: ACGTCTGTTTACTGTGATTGAAACCGCAAGAAGAAG
B19: Table S3 B row 3965 (dsDNA)
DNA 1: GGAGAAACCGCAACTCGGAACTACGGGAACGGAGGA
DNA 2: TCCTCCGTTCCCGTAGTTCCGAGTTGCGGTTTCTCC
B20: Table S3 B row 584 (dsDNA)
DNA 1: GTCCTCTTTGTGGTTTCCATTTGCTTTGTGAAAGAG
DNA 2: CTCTTTCACAAAGCAAATGGAAACCACAAAGAGGAC
B21: Table S3 B row 2601 (dsDNA)
DNA 1: CTGCTTGTGGTTTTGGTCTGCAGCAAGCTGGGCTGC
DNA 2: GCAGCCCAGCTTGCTGCAGACCAAAACCACAAGCAG
B22: Table S3 B row 1866 (dsDNA)
DNA 1: TCTGCGGTCAGCTGACTGTGCCAGAGTGCCGCGGGG
DNA 2: CCCCGCGGCACTCTGGCACAGTCAGCTGACCGCAGA
B23: Table S3 B row 48 (dsDNA)
DNA 1: CCTGCTGCGGTCAGCCCTGTCTCTTTCTGTTTCTGC
DNA 2: GCAGAAACAGAAAGAGACAGGGCTGACCGCAGCAGG
B24: Table S3 B row 320 (dsDNA)
DNA 1: AGAAACCACAAAACCCCATTTGAAATTCAGCCGTGC
DNA 2: GCACGGCTGAATTTCAAATGGGGTTTTGTGGTTTCT
B25: Table S3 B row 2433 (dsDNA)
DNA 1: GGGTTTTGTGGTTAGCAAGTTCCAGCTCCCGTCGCA
DNA 2: TGCGACGGGAGCTGGAACTTGCTAACCACAAAACCC
B26: Table S3 B row 3344 (dsDNA)
DNA 1: CCGAAGCCTGCGGTTTCATGTGGGAGCAAGCGGCCT
DNA 2: AGGCCGCTTGCTCCCACATGAAACCGCAGGCTTCGG
B27: Table S3 B row 2934 (dsDNA)
DNA 1: TTTTTGTGGTTTAGCCCTCAGAGCTCCCTGCCAGAG
DNA 2: CTCTGGCAGGGAGCTCTGAGGGCTAAACCACAAAAA
B28: Table S3 B row 272 (dsDNA)
DNA 1: ACGAGGTTGCGGTTTCTCCACCTCCTCAACAACCTG
DNA 2: CAGGTTGTTGAGGAGGTGGAGAAACCGCAACCTCGT
B29: Table S3 B row 474 (dsDNA)
DNA 1: TCGTATTTGCGGTCAGCCTCTTACGTAATGTGCTTG
DNA 2: CAAGCACATTACGTAAGAGGCTGACCGCAAATACGA
B30: Table S3 B row 2218 (dsDNA)
DNA 1: TCCTTGCGGTTTGCTTTCGCCGTCTCCGAACCGAGG
DNA 2: CCTCGGTTCGGAGACGGCGAAAGCAAACCGCAAGGA
B31: Table S3 B row 1506 (dsDNA)
DNA 1: GTTCCTGGTTTGTGGTTATGATTTGCTGTTTGCCTT
DNA 2: AAGGCAAACAGCAAATCATAACCACAAACCAGGAAC
B32: Table S3 B row 1477 (dsDNA)
DNA 1: TTCTTTGGTCAACCGCAAGCCTCTGCCGCGTCTCGC
DNA 2: GCGAGACGCGGCAGAGGCTTGCGGTTGACCAAAGAA

These binders were tested against RUNX1 (Homo sapiens, UniProt Q01196) (assay: gcPBM; 2 nM RUNX1). Conditions: tags: N-terminal GST (pDEST15), kept (PMC6008103); label: surface-attached array probe.
Sequence of RUNX1 (Q01196 whole entry): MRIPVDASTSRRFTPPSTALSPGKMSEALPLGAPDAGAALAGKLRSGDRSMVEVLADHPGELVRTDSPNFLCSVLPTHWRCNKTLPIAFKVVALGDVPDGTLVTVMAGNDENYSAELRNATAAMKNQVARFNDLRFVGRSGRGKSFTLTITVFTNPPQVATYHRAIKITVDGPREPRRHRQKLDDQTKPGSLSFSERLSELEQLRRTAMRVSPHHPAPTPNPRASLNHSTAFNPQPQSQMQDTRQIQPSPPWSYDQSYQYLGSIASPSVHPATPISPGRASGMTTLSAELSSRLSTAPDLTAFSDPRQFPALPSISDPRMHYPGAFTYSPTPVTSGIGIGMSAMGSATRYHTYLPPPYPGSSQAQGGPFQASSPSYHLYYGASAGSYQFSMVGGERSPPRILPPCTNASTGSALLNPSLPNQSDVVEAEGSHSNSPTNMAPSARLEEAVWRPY
In the case of B1, the binding signal is reported as 30900 PBM fluorescence, median of replicate spots.
With B2 the binding signal was 37400 PBM fluorescence, median of replicate spots.
With B3 the binding signal was 18800 PBM fluorescence, median of replicate spots.
B4 was tested, and the binding signal was 20500 PBM fluorescence, median of replicate spots.
In the case of B5, the binding signal is reported as 17500 PBM fluorescence, median of replicate spots.
With B6 the binding signal was 42400 PBM fluorescence, median of replicate spots.
With B7 the binding signal was 18000 PBM fluorescence, median of replicate spots.
For B8, the binding signal was 31700 PBM fluorescence, median of replicate spots.
B9 was tested, and the binding signal was 28100 PBM fluorescence, median of replicate spots.
B10 was tested, and the binding signal was 16300 PBM fluorescence, median of replicate spots.
With B11 the binding signal was 38700 PBM fluorescence, median of replicate spots.
With B12 the binding signal was 25900 PBM fluorescence, median of replicate spots.
In the case of B13, the binding signal is reported as 17300 PBM fluorescence, median of replicate spots.
B14 was tested, and the binding signal was 42300 PBM fluorescence, median of replicate spots.
In the case of B15, the binding signal is reported as 46700 PBM fluorescence, median of replicate spots.
With B16 the binding signal was 28800 PBM fluorescence, median of replicate spots.
With B17 the binding signal was 20300 PBM fluorescence, median of replicate spots.
In the case of B18, the binding signal is reported as 27500 PBM fluorescence, median of replicate spots.
In the case of B19, the binding signal is reported as 26700 PBM fluorescence, median of replicate spots.
B20 was tested, and the binding signal was 34700 PBM fluorescence, median of replicate spots.
With B21 the binding signal was 14600 PBM fluorescence, median of replicate spots.
With B22 the binding signal was 16100 PBM fluorescence, median of replicate spots.
In the case of B23, the binding signal is reported as 16100 PBM fluorescence, median of replicate spots.
B24 was tested, and the binding signal was 15200 PBM fluorescence, median of replicate spots.
For B25, the binding signal was 18900 PBM fluorescence, median of replicate spots.
In the case of B26, the binding signal is reported as 37500 PBM fluorescence, median of replicate spots.
B27 was tested, and the binding signal was 23200 PBM fluorescence, median of replicate spots.
With B28 the binding signal was 32700 PBM fluorescence, median of replicate spots.
B29 was tested, and the binding signal was 29200 PBM fluorescence, median of replicate spots.
In the case of B30, the binding signal is reported as 30700 PBM fluorescence, median of replicate spots.
B31 was tested, and the binding signal was 24200 PBM fluorescence, median of replicate spots.
With B32 the binding signal was 37300 PBM fluorescence, median of replicate spots.
